Laboratory results: the nanobody polyreactivity screen of Harvey et al. (2022)

assay: yeast display, Sf9 membrane polyspecificity reagent, FACS + sequencing; frameworks hold sequencing errors
Method in brief: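 Polyreactivity labels are assigned by the sorting gate from which each nanobody was recovered. The gates were low and high (top ~1%), set on anti-HA fluorescence for expression and streptavidin fluorescence for reagent binding. Before sorting, galactose-induced (36–48 hours) yeast display cells were stained for 1 hour at 4 °C with 10% biotinylated, detergent-solubilized Sf9 membrane reagent.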

Question: Which “polyreactivity (PSR sort gate)” value does the source give for “QVQLVESGGGLVQAGGSLRLSCAASGFTFQTYAMGWYRQEPGKERELVATIRTRGGSTSYADSVKGRFTISRDNAKNTVYLQMNSLKPEDTAVYYCNGRLSYRSAWYYGGDRYDYWGQGTQVTVSS” here?
Answer: high polyreactivity

Question: With “QVQLVESGVGLVQAGGSLRLSCAASGSIFGPYAMGWSRQAPGKERELVAAISLGGGSTYYAASVKGRFTISRDNAKNTVYLQMNSVKPEDTAVYYCNAEFSSGPYGYNGFDYWGQGTQVTVSS” as the sequence, how does the “polyreactivity (PSR sort gate)” value read?
Answer: low polyreactivity

Question: Which “polyreactivity (PSR sort gate)” value does the source give for “QVQLVESGGGLVQAGGSLRLSCAASGSTFVVNAMGWYRPAQGKERELVAAISRSGTSTYYADSVKGRFTISRDNAKKTVYLQMNSLKPEDSAVYYCNAVGSYYPPDYWGQGTQVTVSS” here?
Answer: high polyreactivity

Question: Which “polyreactivity (PSR sort gate)” value does the source give for “QVQLVESGGGLVQAGGSLRLSCAASGLIFDGYAMGWYRQAPGKERELVAAISRSGSRTYYADSVKGRFTISRDNAKNTVYLQMNSLKPEDTAVYYCAADAYNYPELDYWGQGTQVTVSS” here?
Answer: high polyreactivity

Question: Which “polyreactivity (PSR sort gate)” value does the source give for “QVQLVESGGGLVQAGGSLRLSCAASGFTFVDYMGWYRQAPGKERELVAAIDNSGGGTYYADSVKGRFTISRDNAKNTVYLQMNSLKPEDTAVYYRYAYTFYIYEDVLYVQGDYYWGQGTQVTVSS” here?
Answer: low polyreactivity

Question: Which “polyreactivity (PSR sort gate)” value does the source give for “QVQLVESGGGLVQAGGSLRLICAASGIIFTYNAMGWYRQAPGKERELVAAINGGSSTNYADSVKGRFTISRDNAKNTVYLQMNSLKPEDTAVYDCAADVIPDGVKKPRMYYWGQGTQVTVSS” here?
Answer: low polyreactivity

Question: For “QVQLVESGGGLVQARGSLRLSCAASGSTVGYNAMGWYRQAPGKERELVAAISGNGGSTYADSVKGRFTISRDNAKNTVYLQMNSLKPEDTAVYYCAAVQYGYGLASDSIFDYWGQGTQVTVSS”, which “polyreactivity (PSR sort gate)” value is on record?
Answer: high polyreactivity

Question: Which “polyreactivity (PSR sort gate)” value does the source give for “QVQLVESGGGLVQAGGSLRLSCAASGLIYFYYDMGWYRQAPGKERELVAAISQRGGSTYYADSVKGRFTISRDNAKNTVYLQMNSLKPEDTAVYYCNAYSQRYGYYYWGQGTQVTVSS” here?
Answer: high polyreactivity

Question: With “QVQLVESGGGLVQAGGSLRLSCAASGRTFNPYAMGWYRQAPGKERELVAVISSIGGSTYADSVKGRFTISRDNAKNTVYLQMNSLKPEDTAVYYCNRATFGQWGGDYWGQGTQVTVSS” as the sequence, how does the “polyreactivity (PSR sort gate)” value read?
Answer: high polyreactivity

Question: Which “polyreactivity (PSR sort gate)” value does the source give for “QVQLVESGGGLVQAGGSLRLSCAASGITFLNYAMGWYRQAPGKERELVAAIDTRGGRTNYADSVKGRFTISRDNAKNNVYLQMNSLKPEDTAVYYCAADPFYWYRSVRGEYWGQGSQVTVSS” here?
Answer: low polyreactivity

Question: With “QVQLVESGGGLVQAGGSLRLSCAASGSIFYPYAMGWYRQAPGKERELVAVINDTGSTYYADSVKGRFTISRDNAKNTVYLQMNSLKPEETAVYYCNTATYVDSFPDPGDHWGQGTQVTVSS” as the sequence, how does the “polyreactivity (PSR sort gate)” value read?
Answer: low polyreactivity

Question: For “QVQLVESGGGLVHAGGSLRLSCAASGFIFDTYLMGRYRQAPGTERELVAAISRTGGRTYYADSVKGRFTISRDNAKYTVYLQMNSLNPEDTAVYYCNRAPHIAPEDYDYWGQGTQVTVSS”, which “polyreactivity (PSR sort gate)” value is on record?
Answer: high polyreactivity

Question: With “QVQLVESGGGLVQAGGSLRLSCAASGSTFKYNAMGWYRQAPGKERELVASISRSGGSTYYADSVKGRFTISRDNAKNTVYLQMNSLKPEDTAVYYCNVRRFVHYEYWGHGTQVTVSS” as the sequence, how does the “polyreactivity (PSR sort gate)” value read?
Answer: high polyreactivity

Question: Which “polyreactivity (PSR sort gate)” value does the source give for “QVQLVESGGGLVQAGGSLRLSCAASGFTYRSYTMGWYRQAPGKERELVAAITSRGTSTYYADSVKGRFTISRDNAKNTVYLQMNSLKPEDTALYYCNAARPGKNYDSWGQGTQVTVSS” here?
Answer: high polyreactivity

Question: With “QVQLVESGGGLVQAGGSLRLTCAASGITFGDYALGWYRQAPGKERELVAAITRRSGNTRYADSVKGRFTISRDNAKNTVYLQMNSLKPEDTAVYYCNARWFSYARGFENGYWGQGTQVTVSS” as the sequence, how does the “polyreactivity (PSR sort gate)” value read?
Answer: high polyreactivity

Question: Which “polyreactivity (PSR sort gate)” value does the source give for “QVQLVESGGGLVQAGGSLRLSCAASGSTFIVNAMRWYRQAPGKERELVAAIDWSGGSTYYADSVKGRFTISRDNAKNTVYLQMNSLKPEDTAVYYCAAQYEIPAGNSTYDYWGQGTQVTVSS” here?
Answer: low polyreactivity

Question: With “QVQLVESGGGLVQAGGSLRLSCAASGRIFRWYAMGWYRQAPGKERELVAAISYSGGSTYYADSVKGRFTISRDNAKNTVYLQMNSLKPEDTAVYYCAAATYYKFDYWGQGTQVTVSW” as the sequence, how does the “polyreactivity (PSR sort gate)” value read?
Answer: high polyreactivity

Question: Which “polyreactivity (PSR sort gate)” value does the source give for “QVQLVESGGGLVQAGGSLRLICAASGFTFRNNAMGWYRQAPGKERELVARITFRGGSTYYADSVKGSFTISRDNAKNTVYLQMNSLNPEHTAVYYCAVDWLSVTSTIKFVMDYWGQGTQVTVSS” here?
Answer: low polyreactivity

Question: For “QVQLVESGGGLVQAGGSLRLSCAASGRIFRGYAMGWYRQAPGKERELVAAISYSGGTTYYADSVKGRFTISRDNAKNTVYLQMNSLKPEDTAVYYCNVDADYESQWLSVGYDYWGQGTQVTVSS”, which “polyreactivity (PSR sort gate)” value is on record?
Answer: low polyreactivity

Question: With “QVQLVESGGGLVQAGGSLRLSCAASGLIFAVYAMGWYRQAPGKERELVAGISASAASTYYADSVKGRFTISRDNAKNTVYLQMNSLKPEDTAVYYCVAVLPARGYYWGQGTQVTVSS” as the sequence, how does the “polyreactivity (PSR sort gate)” value read?
Answer: high polyreactivity

Question: With “QVQLVESGGGLVQAGGSLRLSCAASGFILRYYVMGWYRQAPGKERELVAAISSSGGRTYYADSVKGRFTISRDNAKNTVYLQMNSLKPEDTGVYYCATSTYAYRRKSYFYTRPRFGYWGQGYQVTVSS” as the sequence, how does the “polyreactivity (PSR sort gate)” value read?
Answer: high polyreactivity

Question: For “QVQLVESGGGLVQAGGSLSLSCAASGGTFTFYAMGWYRQAPGKERELVATINWSGGSTYYADSVKGRFTISRDNAKNTVYIQMNCLKPEDSAVYYCNAAWAYKSVEYWGQGTQVTVSS”, which “polyreactivity (PSR sort gate)” value is on record?
Answer: low polyreactivity

Question: Which “polyreactivity (PSR sort gate)” value does the source give for “QVQLVVSGGGLVQAGGSLRLSCAASGSTFQYNAMGWYRQAPGKERELVAAISTGTSTYYADSVKGRFTISRDNAKNTVYLQLNSLKTEVTAVYYCAAEYWGDYTEYNYWGHGTQVTVSS” here?
Answer: high polyreactivity

Question: Which “polyreactivity (PSR sort gate)” value does the source give for “QVQLVESGGGLVQAGGSLRLSCAASGSIFARYTMGWYRQAPGKERELVAAISTSGSRTYYADSVKGRFTISRDNAKNCVYLLMNSLKPEDTAVYYCNVAWIWGKYDYWGPGTQVTVSS” here?
Answer: high polyreactivity

Question: Which “polyreactivity (PSR sort gate)” value does the source give for “QVQLVESGGGLVQAGGSLRLICAASGIIFDGNAMGWYRQAPGKERELVASITSDSSTNYADSVKGRFTISRDNAKNTVYLQMNSLKPEDTAVYYCAADHWIAPRRDYWGQGTQVTVSS” here?
Answer: low polyreactivity

Question: Which “polyreactivity (PSR sort gate)” value does the source give for “QVQLVESGGGLVQARGSLRLSCASSGRTFYTYAMGWYRQAPGKERELVAAIRRVGSTNYADSVKGRFTISRDNAKNTGYLQMNSLKPEDTAVYYCAVRLVWPWQGYDYWGQGTQVTVSS” here?
Answer: low polyreactivity

Question: For “QVQLVESGGGLVQAGGSLRLSCAASGSTFEYYAMGWYRQAPGKERELVAAITGSGDNTYYADSVKGRFTISRDNAKNTVYLQMNSLKPEDTAVYYCAATMRVKGQYGRMYYWGQGTQVTVSS”, which “polyreactivity (PSR sort gate)” value is on record?
Answer: high polyreactivity

Question: Which “polyreactivity (PSR sort gate)” value does the source give for “QVQLVESGGGLVQAGGSLRLSCAASGSIFEYYAMGWYRQAPGKERELVASITSGGRTYYADSVKGRFTISRDNAKNTVYLQMNSLKPEDTAVYYCAAAYYNWGYTFYWGQGTQVTVSS” here?
Answer: high polyreactivity

Question: Which “polyreactivity (PSR sort gate)” value does the source give for “HVQLVESGGGLVQAGGSLRLSCAASGTFTYYAMGWYRQAPGKERELVAAITWRGGNTYYADSVKGRFTISRDNAKNTVYLQMNSLKPEDTAVYYCATDYWYIRWGGYYWGQGTQVTVSS” here?
Answer: low polyreactivity

Question: With “QVQLVESGGGLVQAGGSLRLSCAASGFTFYANAMGWYRQAPGKERELVAAIDESGTSTNYADSVKGRFTISRDNAKNTVYLQMNSQKPEDTAVYYCAADGNSTGVYLDGGEGFAYDYWGHGTQVTVSS” as the sequence, how does the “polyreactivity (PSR sort gate)” value read?
Answer: low polyreactivity

Question: Which “polyreactivity (PSR sort gate)” value does the source give for “QVQLVESGGGLVQAGGSLRLSCAASGITIKRYAMGWYRQAPGKEREFVATISQSGTSTYYADSVKGRFTISRDNAKTTVYLQMISLKPEDTAVYYCAADFIGYWYGYYSWGQGTQVTVSS” here?
Answer: low polyreactivity

Question: For “QVQLVESGGGLVQAGGSLRLSCAASGSIFTQYAMGWYRQAPGKERELVARITGSGGRTYYADSVKGRFTISRDNAKNTVYLQMNSLKPEDTAVYYCAARDVRPYYVKPPVRYYYWGQGTQVTVSS”, which “polyreactivity (PSR sort gate)” value is on record?
Answer: high polyreactivity

Question: Which “polyreactivity (PSR sort gate)” value does the source give for “QVQLVESGGGLVQAGGSLRLSCAASGSIFRRYAMGWYRPAPGTERELVAAISYSGGSTYYADSVKGRFTISRDNAKNTVYLQMNSLKPEDTAVYYCAADESRYDYWGQGTQVTVSS” here?
Answer: high polyreactivity

Question: With “QVQLVESGGGLVQAGGSLRLSCAASGITFWRNAMGWYRQAPGKESELVAAISWSVGRTYYADSVKGRFTISRDNAKNTVYLQMNSLKPEDTAFYYCIARWRSGPRAYDYWGQGTQVSVSS” as the sequence, how does the “polyreactivity (PSR sort gate)” value read?
Answer: high polyreactivity

Question: With “QVQLEESGGGLVQAGGSLRLSCAASGFIFAQYAMGWYRKAPRKDRELVAAISWSGGSTYYADSVKGRFTISRDNAKNTVYLQMNSLKPEDTAVYYCAALFRNKSRYRYGYWGQGTQVTVSS” as the sequence, how does the “polyreactivity (PSR sort gate)” value read?
Answer: high polyreactivity

Question: Which “polyreactivity (PSR sort gate)” value does the source give for “QVQLVESGGGLVQAGGSLRISCAPSGIIFYQNTMGWYRQAPGKERELVATITKRGGSSYYADSVKGRFTISRDNAKNTVYLQMNSLKPEDTAVYYCNAAKYAASYIGYGYWGQGTQVTVSS” here?
Answer: high polyreactivity

Question: Which “polyreactivity (PSR sort gate)” value does the source give for “QVQLVESGGGLVQAGGSLRLRCAASGSIFGLYAMGWYRQAPGKERELVAAINQSGGSTTYADSVKGRCTISRDNAKTPVYLQMNSLKPEATAGYSCPADSVGDYGYQVYASWGYEDEYCGQGTQVTVSS” here?
Answer: low polyreactivity

Question: Which “polyreactivity (PSR sort gate)” value does the source give for “QVQLVESGGGLVQAGGSLRLSCAASGFIFEGYAMGWYRQAPGKERELVAAISRGGGSTYYADSVKGRFTISRDNAKNTVYLQMNSLKPEDTAVYSCATGGYYHYTGVKMYYWGQGTQVTVSS” here?
Answer: high polyreactivity

Question: Which “polyreactivity (PSR sort gate)” value does the source give for “QVQLVESGGGLVQAGGSLRLSCAASGFIFATNAMGWYRQAPGKERELVAAISRSGGSTYYADSVKGRFTISRDNAKNTVYLQMYSLKPEDTAVYYCATPRYRYYTIYDYGYWGQGTQVNVSS” here?
Answer: high polyreactivity

Question: With “QEQLQESGGGLVQAGGSLRLSCAASGSIFHLHIMCRYRQAPGKERESVAAISYGTSTYYADSVKGRFTICRDNAKNTVYLQMNSPKPDDTAVYYCAALFLVSKHHHYWGEGTQVTVSS” as the sequence, how does the “polyreactivity (PSR sort gate)” value read?
Answer: low polyreactivity

Question: With “QVQLVESGGGLVQAGGSLRLSCAASGSTFYANAMGWYRQAPGKERELVAAISYSGGGTNYADSVKGRFTISRDNAKNTVYLQMISLKPEDTAVYYCAKRRDYDRYRYKKTSSVRGDYWGQGTQVTVSS” as the sequence, how does the “polyreactivity (PSR sort gate)” value read?
Answer: low polyreactivity

Question: Which “polyreactivity (PSR sort gate)” value does the source give for “QVQLVESGGGLVQAGGSLRLSCAASGFIFARYAMGWYRQAPGKEREFVAAITWSGGTTYYADSVKGRFTISRDYAKNTVYFQMNSLKPEDTAVYYCAARWGKTLWQYNYWGQGTQVTVSS” here?
Answer: high polyreactivity

Question: With “HVQLVESGGGLVQAGGSLRLSCAASGRNFIYNAMGWSSPAPGTDRELVAAINRSGVSTHYADSVKGRFTISRDNAKKTVYLQMNSLKPEDTAVEYCARTVYGARSYDYWGQGTQVTVSS” as the sequence, how does the “polyreactivity (PSR sort gate)” value read?
Answer: low polyreactivity
